Test results reported in paper PMC9676983.

Key:
Assay in all cases: SEC
α-synuclein A53T = α-synuclein A53T (UniProt P37840)
α-synuclein E46K = α-synuclein E46K (UniProt P37840)
α-synuclein A30P = α-synuclein A30P (UniProt P37840)

Substance “α-synuclein A53T (from UniProt P37840 1-140) (natural protein)” has a fraction of oligomers (α-synuclein A53T) of 87.8%.
With “α-synuclein E46K (from UniProt P37840 1-140) (natural protein)” the fraction of oligomers (α-synuclein E46K) was 92.1%.
Work on “α-synuclein A30P (from UniProt P37840 1-140) (natural protein)” yielded a fraction of oligomers (α-synuclein A30P) of 71.6%.
